Results reported in PMC9098466, “Substrate recognition and cryo-EM structure of the ribosome-bound TAC toxin of Mycobacterium tuberculosis” (Nature Communications, 2022).

Target: ribosomal protein uS13 of the E. coli 70S ribosome (E. coli (endogenous in MG1655), UniProt P0A7S9 1-118)
Test: cryo-EM structure
Details: both partners purified

B1: HigB^TAC[K95A] toxin of Mycobacterium tuberculosis (enzyme)
chain: MPPPDPAAMGTWKFFRASVDGRPVFKKEFDKLPDQARAALIVLMQRYLVGDLAAGSIKPIRGDILELRWHEANNHFRVLFFRWGQHPVALTAFYANQQKTPKTKIETALDRQKIWKRAFGDTPPI
notes: also called HigB1
Question: Does B1 bind?
Answer: binds
